Experimental data from US20130281671.

B1: soluble form of human PC7 (amino acids 1-663) (protein)
chain: LAGTGGPDGQGTGGPSWAVHLESLEGDGEEETLEQQADALAQAAGLVNAGRIGELQGHYLFVQPAGHRPALEVEAIRQQVEAVLAGHEAVRWHSEQRLLRRAKRSVHFNDPKYPQQWHLNNRRSPGRDINVTGVWERNVTGRGVTVVVVDDGVEHTIQDIAPNYSPEGSYDLNSNDPDPMPHPDVENGNHHGTRCAGEIAAVPNNSFCAVGVAYGSRIAGIRVLDGPLTDSMEAVAFNKHYQINDIYSCSWGPDDDGKTVDGPHQLGKAALQHGVIAGRQGFGSIFVVASGNGGQHNDNCNYDGYANSIYTVTIGAVDEEGRMPFYAEECASMLAVTFSGGDKMLRSIVTTDWDLQKGTGCTEGHTGTSAAAPLAAGMIALMLQVRPCLTWRDVQHIIVFTATRYEDRRAEWVTNEAGFSHSHQHGFGLLNAWRLVNAAKIWTSVPYLASYVSPVLKENKAIPQSPRSLEVLWNVSRMDLEMSGLKTLEHVAVTVSITHPRRGSLELKLFCPSGMMSLIGAPRSMDSDPNGFNDWTFSTVRCWGERARGTYRLVIRDVGDESFQVGILRQWQLTLYGSVWSAVDIRDRQRLLESAMSGKYLHDDFALPCPPGLKIPEEDGYTITPN
B2: soluble form of yeast Kex2 (amino acids 1-675) (protein)
chain: LVSSQQIPLKDHTSRQYFAVESNETLSRLEEMHPNWKYEHDVRGLPNHYVFSKELLKLGKRSSLEELQGDNNDHILSVHDLFPRNDLFKRLPVPAPPMDSSLLPVKEAEDKLSINDPLFERQWHLVNPSFPGSDINVLDLWYNNITGAGVVAAIVDDGLDYENEDLKDNFCAEGSWDFNDNTNLPKPRLSDDYHGTRCAGEIAAKKGNNFCGVGVGYNAKISGIRILSGDITTEDEAASLIYGLDVNDIYSCSWGPADDGRHLQGPSDLVKKALVKGVTEGRDSKGAIYVFASGNGGTRGDNCNYDGYTNSIYSITIGAIDHKDLHPPYSEGCSAVMAVTYSSGSGEYIHSSDINGRCSNSHGGTSAAAPLAAGVYTLLLEANPNLTWRDVQYLSILSAVGLEKNADGDWRDSAMGKKYSHRYGFGKIDAHKLIEMSKTWENVNAQTWFYLPTLYVSQSTNSTEETLESVITISEKSLQDANFKRIEHVTVTVDIDTEIRGTTTVDLISPAGIISNLGVVRPRDVSSEGFKDWTFMSVAHWGENGVGDWKIKVKTTENGHRIDFHSWRLKLFGESIDSSKTETFVFGNDKEEVEPAATESTVSQYSASSTSISISATSTSSISIGVETSAIPQTTTASTDPDSDPNTPKKLSSPRQ
B3: human PC5 (proprotein convertase subtilisin/kexin type 5), expressed from pSYN-PC5-003 (protein)
chain: RVYTNHWAVKIAGGFPEANRIASKYGFINIGQIGALKDYYHFYHSRTIKRSVISSRGTHSFISMEPKVEWIQQQVVKKRTKRDYDFSRAQSTYFNDPKWPSMWYMHCSDNTHPCQSDMNIEGAWKRGYTGKNIVVTILDDGIERTHPDLMQNYDALASCDVNGNDLDPMPRYDASNENKHGTRCAGEVAAAANNSHCTVGIAFNAKIGGVRMLDGDVTDMVEAKSVSFNPQHVHIYSASWGPDDDGKTVDGPAPLTRQAFENGVRMGRRGLGSVFVWASGNGGRSKDHCSCDGYTNSIYTISISSTAESGKKPWYLEECSSTLATTYSSGESYDKKIITTDLRQRCTDNHTGTSASAPMAAGIIALALEANPFLTWRDVQHVIVRTSRAGHLNANDWKTNAAGFKVSHLYGFGLMDAEAMVMEAEKWTTVPRQHVCVESTDRQIKTIRPNSAVRSIYKASGCSDNPNRHVNYLEHVVVRITITHPRRGDLAIYLTSPSGTRSQLLANRLFDHSMEGFKNWEFMTIHCWGERAAGDWVLEVYDTPSQLRNFKTPGKLKEWSLVLYGTSVQPYSPTNEFPKVERFRYSRVEDPTDDYGTEDYAGPCDPECSEVGCDGPGPDHCNDCLHYYYKLKNNTRICVSSCPPGHYHADKKRCRKCAPNCESCFGSHGDQCMSCKYGYFLNEETNSCVTHCPDGSYQDTKKNLCRKCSENCKTCTEFHNCTECRDGLSLQGSRCSVSCEDGRYFNGQDCQPCHRFCATCAGAGADGCINCTEGYFMEDGRCVQSCSISYYFDHSSENGYKSCKKCDISCLTCNGPGFKNCTSCPSGYLLDLGMCQMGAICKDATEESWAEGGFCMLVKKNNLCQRKVLQQLCCKTCTFQG

These proteins were tested against rFVIIIBDD-Fc-Fc (B-domain deleted Factor VIII-Fc fused to a second Fc through a (GGGGS)4 linker; expressed from pSYN-FVIII-041).
Chain of rFVIIIBDD-Fc-Fc (B-domain deleted Factor VIII-Fc fused to a second Fc through a (GGGGS)4 linker; expressed from pSYN-FVIII-041) (chain, as listed by the source, stated change not applied): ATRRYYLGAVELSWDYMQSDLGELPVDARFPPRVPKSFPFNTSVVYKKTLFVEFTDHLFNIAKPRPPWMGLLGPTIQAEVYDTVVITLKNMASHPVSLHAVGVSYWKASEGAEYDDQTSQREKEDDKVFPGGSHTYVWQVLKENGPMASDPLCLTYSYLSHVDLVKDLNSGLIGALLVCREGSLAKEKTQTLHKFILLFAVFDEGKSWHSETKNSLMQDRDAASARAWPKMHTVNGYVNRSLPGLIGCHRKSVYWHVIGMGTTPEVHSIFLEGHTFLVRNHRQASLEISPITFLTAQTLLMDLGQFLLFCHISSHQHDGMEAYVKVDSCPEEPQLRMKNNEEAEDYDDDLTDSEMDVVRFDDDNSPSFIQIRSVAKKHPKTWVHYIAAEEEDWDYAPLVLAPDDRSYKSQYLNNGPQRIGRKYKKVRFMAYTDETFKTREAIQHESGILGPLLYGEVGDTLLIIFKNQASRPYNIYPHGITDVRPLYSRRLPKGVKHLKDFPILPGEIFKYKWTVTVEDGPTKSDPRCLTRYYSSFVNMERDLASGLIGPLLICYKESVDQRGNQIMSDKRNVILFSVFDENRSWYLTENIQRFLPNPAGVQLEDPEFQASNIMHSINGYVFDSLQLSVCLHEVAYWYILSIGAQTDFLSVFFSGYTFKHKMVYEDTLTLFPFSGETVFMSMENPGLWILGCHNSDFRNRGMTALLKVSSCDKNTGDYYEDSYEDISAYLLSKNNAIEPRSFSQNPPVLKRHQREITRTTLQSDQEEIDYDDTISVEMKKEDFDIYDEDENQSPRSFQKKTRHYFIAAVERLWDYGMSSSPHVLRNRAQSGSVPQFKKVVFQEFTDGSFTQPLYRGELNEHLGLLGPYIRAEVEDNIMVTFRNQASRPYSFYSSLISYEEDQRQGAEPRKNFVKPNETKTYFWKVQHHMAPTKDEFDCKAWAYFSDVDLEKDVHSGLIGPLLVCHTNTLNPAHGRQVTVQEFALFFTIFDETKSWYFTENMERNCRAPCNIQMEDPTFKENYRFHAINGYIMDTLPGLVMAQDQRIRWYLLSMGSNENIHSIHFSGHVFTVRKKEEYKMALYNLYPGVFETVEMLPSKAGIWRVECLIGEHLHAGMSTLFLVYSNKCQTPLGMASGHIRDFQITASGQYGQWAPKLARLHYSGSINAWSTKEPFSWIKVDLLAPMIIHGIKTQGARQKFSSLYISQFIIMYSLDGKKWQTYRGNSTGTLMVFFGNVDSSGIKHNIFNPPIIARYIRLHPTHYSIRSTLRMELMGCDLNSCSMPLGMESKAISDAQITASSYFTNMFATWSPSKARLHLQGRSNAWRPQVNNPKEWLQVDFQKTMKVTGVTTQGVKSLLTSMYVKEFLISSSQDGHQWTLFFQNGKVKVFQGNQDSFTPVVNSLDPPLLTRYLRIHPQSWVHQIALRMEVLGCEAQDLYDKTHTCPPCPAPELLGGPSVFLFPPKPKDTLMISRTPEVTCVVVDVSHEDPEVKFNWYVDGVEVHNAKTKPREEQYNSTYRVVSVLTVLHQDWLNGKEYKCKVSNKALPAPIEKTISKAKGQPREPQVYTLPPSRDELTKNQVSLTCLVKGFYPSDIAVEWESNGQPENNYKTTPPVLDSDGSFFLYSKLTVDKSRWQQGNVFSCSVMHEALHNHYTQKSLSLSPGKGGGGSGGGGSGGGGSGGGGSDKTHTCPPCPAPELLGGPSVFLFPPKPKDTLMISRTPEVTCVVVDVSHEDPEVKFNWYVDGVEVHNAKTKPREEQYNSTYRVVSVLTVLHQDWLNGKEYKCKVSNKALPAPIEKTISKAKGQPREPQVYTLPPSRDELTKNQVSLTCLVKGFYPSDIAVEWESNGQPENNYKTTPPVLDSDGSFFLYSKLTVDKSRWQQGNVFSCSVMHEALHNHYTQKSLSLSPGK

| Protein | nonprocessed FVIIIFc on SDS-PAGE (SYPRO Ruby and Coomassie staining) |
| --- | --- |
| B1 | Kex2, PC7, PACE, and PC5 decrease nonprocessed Factor VIII |
| B2 | Kex2, PC7, PACE, and PC5 decrease nonprocessed Factor VIII |
| B3 | Kex2, PC7, PACE, and PC5 decrease nonprocessed Factor VIII |
